Test results from US20220220215A1.

Target: human CD137 expressed on cells (Jurkat human CD137 NF-kB luciferase reporter cells; human CD8+ T cells) (human) (UniProt Q07011)
Test: cell-based or functional assay

CD8+ T-cell activation assay - IL-2 release, EC50: 0.397 nM
Substance: Urelumab analog (antibody)
